Where a chain is given by its changes, count along the chain named.
Key:
[1] = target: pSer2 CTD peptide (RNA polymerase II CTD, about two heptads, phosphorylated at Ser2); assay: fluorescence polarisation
[2] = target: pSer7 CTD peptide (RNA polymerase II CTD, about two heptads, phosphorylated at Ser7); assay: fluorescence polarisation

B1: RPRD1B CID domain (residues 2-133), wild type (domain or fragment)
chain: SSFSESALEKKLSELSNSQQSVQTLSLWLIHHRKHAGPIVSVWHRELRKAKSNRKLTFLYLANDVIQNSKRKGPEFTREFESVLVDAFSHVAREADEGCKKPLERLLNIWQERSVYGGEFIQQLKLSMEDSK
[1]
  Kd: 22.5 µM
[2]
  Kd: 32.5 µM

B2: RPRD1B CID domain (residues 2-133), Tyr61 to alanine (domain or fragment)
chain: B1 chain with Y60A
[1]
  Kd: 37.8 µM

B3: RPRD1B CID domain (residues 2-133), Arg114A mutant (domain or fragment)
chain: B1 chain with R113A
[1]
  Kd: 37.9 µM

Source: article PMC11775580
